B1: Ubiquitin carboxyl-terminal hydrolase BAP1 (Mus musculus), Q99PU7 (parent)
chain: MNKGWLELESDPGLFTLLVEDFGVKGVQVEEIYDLQSKCQGPVYGFIFLFKWIEERRSRRKVSTLVDDTSVIDDDIVNNMFFAHQLIPNSCATHALLSVLLNCSNVDLGPTLSRMKDFTKGFSPESKGYAIGNAPELAKAHNSHARPEPRHLPEKQNGLSAVRTMEAFHFVSYVPITGRLFELDGLKVYPIDHGPWGEDEEWTDKARRVIMERIGLATAGEPYHDIRFNLMAVVPDRRIKYETRLHVLKVNRQTVLEALQQLIRVTQPELIQTHKSQESQLPEESKPASSKSPLGLEAGRTPVASECTQTDGAEEVAGSCPQTTTHSPPSKCKLVVKPPGSSLNGVPPNPAPIVQRLPAFLDNHNYAKSPMQEEEDLAAGVGRSRVPVRAPQQYSEDEDDYEDEDEDVQNTNPAIRYKRKGTGKPGSLSNSSDGQLSVLQPNTINVLTEKLQESQKDLSVPLSIKTSSGAGSPAVAVPTHSQPSPTPSNESTDTASEIGSAFNSPLRSPIRSANPTRPSSPVTSHISKVLFGEDDSLLRVDCIRYNRAVRDLGPVISTGLLHLAEDGVLSPLALTEGGKGSSPSTRSSQGSQGSSGLEEKEVVEVTESRDKPGLNRSSEPLSGEKYSPKELLALLKCVEAEIANYEACLKEEVEKRKKFKIDDQRRTHNYDEFICTFISMLAQEGMLANLVEQNISVRRRQGVSIGRLHKQRKPDRRKRSRPYKAKRQ

Variants of: B1
Settings: with brca1_human BRCA1, P38398
Chain of brca1_human BRCA1, P38398 (P38398 whole entry, looked up): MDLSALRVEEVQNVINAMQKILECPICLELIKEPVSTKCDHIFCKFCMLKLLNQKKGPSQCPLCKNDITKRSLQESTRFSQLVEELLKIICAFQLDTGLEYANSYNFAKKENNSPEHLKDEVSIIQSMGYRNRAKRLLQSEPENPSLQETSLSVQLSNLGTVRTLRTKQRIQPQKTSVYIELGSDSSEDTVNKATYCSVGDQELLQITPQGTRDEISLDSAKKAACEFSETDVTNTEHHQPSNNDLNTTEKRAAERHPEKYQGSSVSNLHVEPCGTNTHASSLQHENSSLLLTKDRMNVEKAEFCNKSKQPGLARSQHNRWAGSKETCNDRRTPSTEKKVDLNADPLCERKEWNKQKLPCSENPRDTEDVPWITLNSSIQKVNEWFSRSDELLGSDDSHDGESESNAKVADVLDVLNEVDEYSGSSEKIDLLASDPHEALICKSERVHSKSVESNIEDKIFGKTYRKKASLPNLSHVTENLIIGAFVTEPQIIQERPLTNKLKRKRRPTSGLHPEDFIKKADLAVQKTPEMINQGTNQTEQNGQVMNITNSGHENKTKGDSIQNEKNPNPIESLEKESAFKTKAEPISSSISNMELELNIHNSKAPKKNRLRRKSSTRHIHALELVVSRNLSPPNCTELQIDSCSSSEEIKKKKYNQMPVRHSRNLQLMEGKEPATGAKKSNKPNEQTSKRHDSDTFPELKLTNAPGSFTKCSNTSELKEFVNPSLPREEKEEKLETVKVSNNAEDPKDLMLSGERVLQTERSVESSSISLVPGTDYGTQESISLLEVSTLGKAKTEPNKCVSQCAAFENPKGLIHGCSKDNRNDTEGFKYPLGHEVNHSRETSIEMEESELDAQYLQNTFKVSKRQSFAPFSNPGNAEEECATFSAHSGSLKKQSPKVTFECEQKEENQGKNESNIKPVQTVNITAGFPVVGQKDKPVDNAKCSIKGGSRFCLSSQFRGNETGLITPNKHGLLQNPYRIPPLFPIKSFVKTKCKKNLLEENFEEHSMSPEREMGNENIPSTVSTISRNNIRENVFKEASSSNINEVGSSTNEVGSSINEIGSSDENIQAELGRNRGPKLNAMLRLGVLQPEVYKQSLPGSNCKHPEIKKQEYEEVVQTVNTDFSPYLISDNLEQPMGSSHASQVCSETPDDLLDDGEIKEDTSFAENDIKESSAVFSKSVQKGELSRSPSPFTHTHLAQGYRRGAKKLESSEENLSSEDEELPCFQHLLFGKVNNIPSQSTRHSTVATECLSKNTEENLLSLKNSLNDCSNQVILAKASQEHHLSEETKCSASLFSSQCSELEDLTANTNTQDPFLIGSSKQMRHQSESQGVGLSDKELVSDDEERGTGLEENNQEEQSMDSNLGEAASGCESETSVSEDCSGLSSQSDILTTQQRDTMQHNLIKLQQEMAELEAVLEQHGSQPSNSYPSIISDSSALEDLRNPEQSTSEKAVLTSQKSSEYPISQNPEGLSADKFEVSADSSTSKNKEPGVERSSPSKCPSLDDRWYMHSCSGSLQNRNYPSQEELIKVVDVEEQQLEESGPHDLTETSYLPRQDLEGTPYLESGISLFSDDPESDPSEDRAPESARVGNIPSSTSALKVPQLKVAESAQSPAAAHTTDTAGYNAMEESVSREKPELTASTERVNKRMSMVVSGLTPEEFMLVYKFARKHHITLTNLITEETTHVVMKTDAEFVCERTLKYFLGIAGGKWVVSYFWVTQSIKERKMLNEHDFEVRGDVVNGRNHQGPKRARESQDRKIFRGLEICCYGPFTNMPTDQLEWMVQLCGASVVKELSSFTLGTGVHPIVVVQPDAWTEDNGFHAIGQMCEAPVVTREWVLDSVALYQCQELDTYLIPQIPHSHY

effect of a mutation on the interaction | Variant
disrupting interaction | L690P
